Results on three substances are retold here after article PMC2115152.

Several values for one entry are separate records, joined by “and”; a condition that tells them apart may be missing. Equal entries are not always repeated.

Experiment in all cases: co-sedimentation
For experiment [1], the target named is F-actin first mixed with low mol wt TMs (rabbit | rat) (UniProt P68135).
In experiment [2] the target is F-actin first mixed with high mol wt TMs (rabbit | rat) (UniProt P68135).
Experiment [3] has as its target F-actin (rabbit) (UniProt P68135).
Experiment [4] deals with F-actin with 83-kD protein (rabbit | rat) (UniProt P68135).

Chain of 83-kD nonmuscle caldesmon (Q62736 whole entry): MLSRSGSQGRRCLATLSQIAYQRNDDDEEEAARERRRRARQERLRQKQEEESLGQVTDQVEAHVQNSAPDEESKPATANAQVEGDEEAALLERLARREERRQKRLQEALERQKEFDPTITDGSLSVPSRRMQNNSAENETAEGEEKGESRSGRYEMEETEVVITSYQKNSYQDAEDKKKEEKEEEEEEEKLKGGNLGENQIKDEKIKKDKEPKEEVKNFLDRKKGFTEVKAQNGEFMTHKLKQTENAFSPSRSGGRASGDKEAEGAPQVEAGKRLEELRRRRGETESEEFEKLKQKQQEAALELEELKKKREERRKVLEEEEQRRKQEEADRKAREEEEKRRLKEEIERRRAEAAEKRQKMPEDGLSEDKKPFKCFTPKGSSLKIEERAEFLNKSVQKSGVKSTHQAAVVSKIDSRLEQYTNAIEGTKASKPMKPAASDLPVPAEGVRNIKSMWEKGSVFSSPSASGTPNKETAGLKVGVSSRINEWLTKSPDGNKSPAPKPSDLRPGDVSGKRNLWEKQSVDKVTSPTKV

Regarding “83-kD nonmuscle caldesmon (from UniProt Q62736 1-531) (natural protein)”, the stoichiometry N (actin per 83-kD protein) in experiment [1] and in experiment [2] was 6 in each case.

For “high mol wt TMs (a mixture of TM-1 [40,000] and TM-2 [36,500])”, in experiment [3], the percent of the TM mass bound to actin (50 mM KCl, no 83-kD protein) was below 10% and the percent of the TMs bound to actin (50 mM KCl, no 83-kD protein) was 10%. This substance yielded a fold increase of TM binding to actin against no 83-kD protein (50 mM KCl) in experiment [4] of 10 fold.

For the substance “low mol wt TMs (a mixture of TM-4 [32,400] and TM-5 [32,000])”, in experiment [3], the Ka came to 440000 M⁻¹; the TM bound to actin (0.12 mg/ml TMs, no 83-kD protein) is 0.4 µmol; the molar ratio of TMs to sedimentable actin (0.06 mg/ml TMs, no 83-kD protein) is 157 actin per TM; the molar ratio of TMs to sedimentable actin (0.12 mg/ml TMs, no 83-kD protein) is 29 actin per TM. For the same substance, in experiment [3], the percent of actin saturated with TMs (0.06 mg/ml TMs, no 83-kD protein) is 3% and 4%; the percent of actin saturated with TMs (0.12 mg/ml TMs, no 83-kD protein) is 20%; the percent of the TM mass bound to actin (0.06 mg/ml TMs, no 83-kD protein) is 5% and 7%; the stoichiometry N was found to be 6 actin per TM. In addition, in experiment [4], the Ka was 1.5e+06 M⁻¹ and the molar ratio of TMs to sedimentable actin (0.06 mg/ml TMs, 83-kD protein added) came out at 14 actin per TM.

A word on the stoichiometry N: it is the number of molecules, sites or subunits per partner or assembly.
